Data reported in patent US20240018502A1.

Molecular target: plasma purified human complement protein C3 (human) (UniProt P01024)
Assay: cell-based or functional assay

plasma purified human complement protein C3 (human), sequence (P01024 23-667, chain 1 of 2): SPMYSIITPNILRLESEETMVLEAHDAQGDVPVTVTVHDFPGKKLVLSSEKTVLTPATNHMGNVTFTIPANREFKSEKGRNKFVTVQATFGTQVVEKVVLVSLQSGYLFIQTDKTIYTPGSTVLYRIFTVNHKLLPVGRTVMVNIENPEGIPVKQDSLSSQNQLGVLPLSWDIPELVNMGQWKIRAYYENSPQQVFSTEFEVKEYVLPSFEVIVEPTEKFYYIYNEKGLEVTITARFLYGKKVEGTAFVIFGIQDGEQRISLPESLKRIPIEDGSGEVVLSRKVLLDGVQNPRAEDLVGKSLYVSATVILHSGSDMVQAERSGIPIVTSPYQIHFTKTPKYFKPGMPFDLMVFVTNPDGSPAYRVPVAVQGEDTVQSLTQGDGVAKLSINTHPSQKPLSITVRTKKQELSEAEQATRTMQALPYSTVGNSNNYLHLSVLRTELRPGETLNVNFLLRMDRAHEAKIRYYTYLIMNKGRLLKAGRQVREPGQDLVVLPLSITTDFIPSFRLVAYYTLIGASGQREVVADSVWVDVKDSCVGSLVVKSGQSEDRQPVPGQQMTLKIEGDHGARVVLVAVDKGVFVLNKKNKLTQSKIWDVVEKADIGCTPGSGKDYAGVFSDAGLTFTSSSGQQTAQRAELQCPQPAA
plasma purified human complement protein C3 (human), sequence (P01024 672-1663, chain 2 of 2): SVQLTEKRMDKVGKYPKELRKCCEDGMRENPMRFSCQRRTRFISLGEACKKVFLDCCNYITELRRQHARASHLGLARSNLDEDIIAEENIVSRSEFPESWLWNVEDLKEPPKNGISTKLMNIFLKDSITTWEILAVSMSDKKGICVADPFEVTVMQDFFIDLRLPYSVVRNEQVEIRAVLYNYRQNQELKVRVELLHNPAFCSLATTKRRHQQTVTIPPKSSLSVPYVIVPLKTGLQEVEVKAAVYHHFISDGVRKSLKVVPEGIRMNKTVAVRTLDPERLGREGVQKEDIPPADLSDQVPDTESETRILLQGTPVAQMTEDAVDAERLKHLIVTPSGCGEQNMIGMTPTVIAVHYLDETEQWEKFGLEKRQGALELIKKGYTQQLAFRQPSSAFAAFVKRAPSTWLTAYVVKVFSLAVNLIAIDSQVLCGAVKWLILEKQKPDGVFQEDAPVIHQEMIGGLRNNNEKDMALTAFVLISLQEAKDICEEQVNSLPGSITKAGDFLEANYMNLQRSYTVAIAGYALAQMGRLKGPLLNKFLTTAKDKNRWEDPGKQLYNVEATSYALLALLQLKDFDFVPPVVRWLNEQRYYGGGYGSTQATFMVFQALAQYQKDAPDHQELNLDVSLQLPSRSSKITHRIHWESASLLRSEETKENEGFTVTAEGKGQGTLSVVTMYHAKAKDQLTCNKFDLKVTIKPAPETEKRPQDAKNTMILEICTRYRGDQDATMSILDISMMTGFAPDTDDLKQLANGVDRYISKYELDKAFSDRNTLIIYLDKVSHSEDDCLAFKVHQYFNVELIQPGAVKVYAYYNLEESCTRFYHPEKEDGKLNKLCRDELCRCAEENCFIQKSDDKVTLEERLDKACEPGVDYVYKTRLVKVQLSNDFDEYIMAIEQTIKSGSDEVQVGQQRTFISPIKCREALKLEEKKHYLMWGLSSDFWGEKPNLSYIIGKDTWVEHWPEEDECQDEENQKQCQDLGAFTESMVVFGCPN

EC50 hC3 cleavage [nM] | EC50 of hC3 cleavage [nM] | Binder
31.6 |  | MTSP-1 protease domain I41D/F99L/C122S/G151Q/Q175R/Q192V/D217L (enzyme) VVGGTDADEGEWPWQVSLHALGQGHDCGASLISPNWLVSAAHCYIDDRGFRYSDPTQWTAFLGLHDQSQRSAPGVQERRLKRIISHPFFNDFTLDYDIALLELEKPAEYSSMVRPISLPDASHVFPAGKAIWVTGWGHTQYGGTQALILQKGEIRVINQTTCENLLPQRITPRMMCVGFLSGGVDSCVGDSGGPLSSVEADGRIFQAGVVSWGLGCAQRNKPGVYTRLPLFRDWIKENTGV
172 |  | MTSP-1 protease domain F97T/F99L/C122S/G151N/Q175S/Q192T/D217A (enzyme) VVGGTDADEGEWPWQVSLHALGQGHICGASLISPNWLVSAAHCYIDDRGFRYSDPTQWTAFLGLHDQSQRSAPGVQERRLKRIISHPFFNDTTLDYDIALLELEKPAEYSSMVRPISLPDASHVFPAGKAIWVTGWGHTQYGGTNALILQKGEIRVINQTTCENLLPQSITPRMMCVGFLSGGVDSCTGDSGGPLSSVEADGRIFQAGVVSWGAGCAQRNKPGVYTRLPLFRDWIKENTGV
30.5 |  | MTSP-1 protease domain I41G/F97V/F99L/C122S/G151N/Q192T/D217V (enzyme) VVGGTDADEGEWPWQVSLHALGQGHGCGASLISPNWLVSAAHCYIDDRGFRYSDPTQWTAFLGLHDQSQRSAPGVQERRLKRIISHPFFNDVTLDYDIALLELEKPAEYSSMVRPISLPDASHVFPAGKAIWVTGWGHTQYGGTNALILQKGEIRVINQTTCENLLPQQITPRMMCVGFLSGGVDSCTGDSGGPLSSVEADGRIFQAGVVSWGVGCAQRNKPGVYTRLPLFRDWIKENTGV
41.1 |  | MTSP-1 protease domain I41E/F97R/F99L/C122S/G151Q/Q175G/Q192T (enzyme) VVGGTDADEGEWPWQVSLHALGQGHECGASLISPNWLVSAAHCYIDDRGFRYSDPTQWTAFLGLHDQSQRSAPGVQERRLKRIISHPFFNDRTLDYDIALLELEKPAEYSSMVRPISLPDASHVFPAGKAIWVTGWGHTQYGGTQALILQKGEIRVINQTTCENLLPQGITPRMMCVGFLSGGVDSCTGDSGGPLSSVEADGRIFQAGVVSWGDGCAQRNKPGVYTRLPLFRDWIKENTGV
70.4 |  | MTSP-1 protease domain I41D/F97T/F99L/C122S/G151N/Q192T/D217A (enzyme) VVGGTDADEGEWPWQVSLHALGQGHDCGASLISPNWLVSAAHCYIDDRGFRYSDPTQWTAFLGLHDQSQRSAPGVQERRLKRIISHPFFNDTTLDYDIALLELEKPAEYSSMVRPISLPDASHVFPAGKAIWVTGWGHTQYGGTNALILQKGEIRVINQTTCENLLPQQITPRMMCVGFLSGGVDSCTGDSGGPLSSVEADGRIFQAGVVSWGAGCAQRNKPGVYTRLPLFRDWIKENTGV
89.9 |  | MTSP-1 protease domain I41E/F97S/F99L/C122S/Q175L/Q192V/D217A (enzyme) VVGGTDADEGEWPWQVSLHALGQGHECGASLISPNWLVSAAHCYIDDRGFRYSDPTQWTAFLGLHDQSQRSAPGVQERRLKRIISHPFFNDSTLDYDIALLELEKPAEYSSMVRPISLPDASHVFPAGKAIWVTGWGHTQYGGTGALILQKGEIRVINQTTCENLLPQLITPRMMCVGFLSGGVDSCVGDSGGPLSSVEADGRIFQAGVVSWGAGCAQRNKPGVYTRLPLFRDWIKENTGV
5.72 |  | MTSP-1 protease domain I41D/F97R/F99L/C122S/Q175L/Q192T/D217I (enzyme) VVGGTDADEGEWPWQVSLHALGQGHDCGASLISPNWLVSAAHCYIDDRGFRYSDPTQWTAFLGLHDQSQRSAPGVQERRLKRIISHPFFNDRTLDYDIALLELEKPAEYSSMVRPISLPDASHVFPAGKAIWVTGWGHTQYGGTGALILQKGEIRVINQTTCENLLPQLITPRMMCVGFLSGGVDSCTGDSGGPLSSVEADGRIFQAGVVSWGIGCAQRNKPGVYTRLPLFRDWIKENTGV
79.4 |  | MTSP-1 protease domain I41D/F97R/F99L/C122S/G151Q/Q175R/Q192V (enzyme) VVGGTDADEGEWPWQVSLHALGQGHDCGASLISPNWLVSAAHCYIDDRGFRYSDPTQWTAFLGLHDQSQRSAPGVQERRLKRIISHPFFNDRTLDYDIALLELEKPAEYSSMVRPISLPDASHVFPAGKAIWVTGWGHTQYGGTQALILQKGEIRVINQTTCENLLPQRITPRMMCVGFLSGGVDSCVGDSGGPLSSVEADGRIFQAGVVSWGDGCAQRNKPGVYTRLPLFRDWIKENTGV
50.6 |  | MTSP-1 protease domain I41D/F97R/F99L/C122S/Q175R/Q192V/D217L (enzyme) VVGGTDADEGEWPWQVSLHALGQGHDCGASLISPNWLVSAAHCYIDDRGFRYSDPTQWTAFLGLHDQSQRSAPGVQERRLKRIISHPFFNDRTLDYDIALLELEKPAEYSSMVRPISLPDASHVFPAGKAIWVTGWGHTQYGGTGALILQKGEIRVINQTTCENLLPQRITPRMMCVGFLSGGVDSCVGDSGGPLSSVEADGRIFQAGVVSWGLGCAQRNKPGVYTRLPLFRDWIKENTGV
56.7 |  | MTSP-1 protease domain I41D/F97T/F99L/C122S/G151N/Q175S/Q192T (enzyme) VVGGTDADEGEWPWQVSLHALGQGHDCGASLISPNWLVSAAHCYIDDRGFRYSDPTQWTAFLGLHDQSQRSAPGVQERRLKRIISHPFFNDTTLDYDIALLELEKPAEYSSMVRPISLPDASHVFPAGKAIWVTGWGHTQYGGTNALILQKGEIRVINQTTCENLLPQSITPRMMCVGFLSGGVDSCTGDSGGPLSSVEADGRIFQAGVVSWGDGCAQRNKPGVYTRLPLFRDWIKENTGV
25.5 |  | MTSP-1 protease domain I41D/F97T/F99L/C122S/G151N/Q175S/D217A (enzyme) VVGGTDADEGEWPWQVSLHALGQGHDCGASLISPNWLVSAAHCYIDDRGFRYSDPTQWTAFLGLHDQSQRSAPGVQERRLKRIISHPFFNDTTLDYDIALLELEKPAEYSSMVRPISLPDASHVFPAGKAIWVTGWGHTQYGGTNALILQKGEIRVINQTTCENLLPQSITPRMMCVGFLSGGVDSCQGDSGGPLSSVEADGRIFQAGVVSWGAGCAQRNKPGVYTRLPLFRDWIKENTGV
42.3 |  | MTSP-1 protease domain I41D/F97R/F99L/C122S/G151Q/Q192V/D217L (enzyme) VVGGTDADEGEWPWQVSLHALGQGHDCGASLISPNWLVSAAHCYIDDRGFRYSDPTQWTAFLGLHDQSQRSAPGVQERRLKRIISHPFFNDRTLDYDIALLELEKPAEYSSMVRPISLPDASHVFPAGKAIWVTGWGHTQYGGTQALILQKGEIRVINQTTCENLLPQQITPRMMCVGFLSGGVDSCVGDSGGPLSSVEADGRIFQAGVVSWGLGCAQRNKPGVYTRLPLFRDWIKENTGV
50.6 |  | MTSP-1 protease domain I41S/F97Q/F99L/C122S/Q175W/Q192V/D217R (enzyme) VVGGTDADEGEWPWQVSLHALGQGHSCGASLISPNWLVSAAHCYIDDRGFRYSDPTQWTAFLGLHDQSQRSAPGVQERRLKRIISHPFFNDQTLDYDIALLELEKPAEYSSMVRPISLPDASHVFPAGKAIWVTGWGHTQYGGTGALILQKGEIRVINQTTCENLLPQWITPRMMCVGFLSGGVDSCVGDSGGPLSSVEADGRIFQAGVVSWGRGCAQRNKPGVYTRLPLFRDWIKENTGV
73.1 |  | MTSP-1 protease domain I41G/F97A/F99L/C122S/G151N/Q175M/Q192S (enzyme) VVGGTDADEGEWPWQVSLHALGQGHGCGASLISPNWLVSAAHCYIDDRGFRYSDPTQWTAFLGLHDQSQRSAPGVQERRLKRIISHPFFNDATLDYDIALLELEKPAEYSSMVRPISLPDASHVFPAGKAIWVTGWGHTQYGGTNALILQKGEIRVINQTTCENLLPQMITPRMMCVGFLSGGVDSCSGDSGGPLSSVEADGRIFQAGVVSWGDGCAQRNKPGVYTRLPLFRDWIKENTGV
19.4 |  | MTSP-1 protease domain I41D/F97R/F99L/C122S/G151Q/Q175R/D217L (enzyme) VVGGTDADEGEWPWQVSLHALGQGHDCGASLISPNWLVSAAHCYIDDRGFRYSDPTQWTAFLGLHDQSQRSAPGVQERRLKRIISHPFFNDRTLDYDIALLELEKPAEYSSMVRPISLPDASHVFPAGKAIWVTGWGHTQYGGTQALILQKGEIRVINQTTCENLLPQRITPRMMCVGFLSGGVDSCQGDSGGPLSSVEADGRIFQAGVVSWGLGCAQRNKPGVYTRLPLFRDWIKENTGV
112 |  | MTSP-1 protease domain I41G/F97L/F99L/C122S/G151N/Q192V/D217L (enzyme) VVGGTDADEGEWPWQVSLHALGQGHGCGASLISPNWLVSAAHCYIDDRGFRYSDPTQWTAFLGLHDQSQRSAPGVQERRLKRIISHPFFNDLTLDYDIALLELEKPAEYSSMVRPISLPDASHVFPAGKAIWVTGWGHTQYGGTNALILQKGEIRVINQTTCENLLPQQITPRMMCVGFLSGGVDSCVGDSGGPLSSVEADGRIFQAGVVSWGLGCAQRNKPGVYTRLPLFRDWIKENTGV
30.5 |  | MTSP-1 protease domain I41D/F99L/C122S/G151N/Q175S/Q192T/D217A (enzyme) VVGGTDADEGEWPWQVSLHALGQGHDCGASLISPNWLVSAAHCYIDDRGFRYSDPTQWTAFLGLHDQSQRSAPGVQERRLKRIISHPFFNDFTLDYDIALLELEKPAEYSSMVRPISLPDASHVFPAGKAIWVTGWGHTQYGGTNALILQKGEIRVINQTTCENLLPQSITPRMMCVGFLSGGVDSCTGDSGGPLSSVEADGRIFQAGVVSWGAGCAQRNKPGVYTRLPLFRDWIKENTGV
 | 85.2 | MTSP-1 I41D/C122S/G151N/Q192T (enzyme) VVGGTDADEGEWPWQVSLHALGQGHDCGASLISPNWLVSAAHCYIDDRGFRYSDPTQWTAFLGLHDQSQRSAPGVQERRLKRIISHPFFNDFTFDYDIALLELEKPAEYSSMVRPISLPDASHVFPAGKAIWVTGWGHTQYGGTNALILQKGEIRVINQTTCENLLPQQITPRMMCVGFLSGGVDSCTGDSGGPLSSVEADGRIFQAGVVSWGDGCAQRNKPGVYTRLPLFRDWIKENTGV
52.1 |  | MTSP-1 protease domain I41D/F97T/F99L/C122S/Q175S/Q192T/D217A (enzyme) VVGGTDADEGEWPWQVSLHALGQGHDCGASLISPNWLVSAAHCYIDDRGFRYSDPTQWTAFLGLHDQSQRSAPGVQERRLKRIISHPFFNDTTLDYDIALLELEKPAEYSSMVRPISLPDASHVFPAGKAIWVTGWGHTQYGGTGALILQKGEIRVINQTTCENLLPQSITPRMMCVGFLSGGVDSCTGDSGGPLSSVEADGRIFQAGVVSWGAGCAQRNKPGVYTRLPLFRDWIKENTGV
463 |  | MTSP-1 protease domain F97L/F99L/C122S/Q175K/Q192V/D217M (enzyme) VVGGTDADEGEWPWQVSLHALGQGHICGASLISPNWLVSAAHCYIDDRGFRYSDPTQWTAFLGLHDQSQRSAPGVQERRLKRIISHPFFNDLTLDYDIALLELEKPAEYSSMVRPISLPDASHVFPAGKAIWVTGWGHTQYGGTGALILQKGEIRVINQTTCENLLPQKITPRMMCVGFLSGGVDSCVGDSGGPLSSVEADGRIFQAGVVSWGMGCAQRNKPGVYTRLPLFRDWIKENTGV
 | 1.45 | MTSP-1 Q38H/I41S/D60bT/F60eS/Y60gW/D96K/F97G/ins97aV/T98P/F99L/C122S/G151H/Q175L (enzyme) VVGGTDADEGEWPWQVSLHALGHGHSCGASLISPNWLVSAAHCYIDTRGSRWSDPTQWTAFLGLHDQSQRSAPGVQERRLKRIISHPFFNKGVPLDYDIALLELEKPAEYSSMVRPISLPDASHVFPAGKAIWVTGWGHTQYGGTHALILQKGEIRVINQTTCENLLPQLITPRMMCVGFLSGGVDSCQGDSGGPLSSVEADGRIFQAGVVSWGDGCAQRNKPGVYTRLPLFRDWIKENTGV
